Assay results from patent US20250295737A1 (AstraZeneca / MedImmune, published 2025).
Changes are numbered by the printed parent chain.

T1: human RXFP1 (human, UniProt Q9HBX9 1-757)
T1 sequence (looked up): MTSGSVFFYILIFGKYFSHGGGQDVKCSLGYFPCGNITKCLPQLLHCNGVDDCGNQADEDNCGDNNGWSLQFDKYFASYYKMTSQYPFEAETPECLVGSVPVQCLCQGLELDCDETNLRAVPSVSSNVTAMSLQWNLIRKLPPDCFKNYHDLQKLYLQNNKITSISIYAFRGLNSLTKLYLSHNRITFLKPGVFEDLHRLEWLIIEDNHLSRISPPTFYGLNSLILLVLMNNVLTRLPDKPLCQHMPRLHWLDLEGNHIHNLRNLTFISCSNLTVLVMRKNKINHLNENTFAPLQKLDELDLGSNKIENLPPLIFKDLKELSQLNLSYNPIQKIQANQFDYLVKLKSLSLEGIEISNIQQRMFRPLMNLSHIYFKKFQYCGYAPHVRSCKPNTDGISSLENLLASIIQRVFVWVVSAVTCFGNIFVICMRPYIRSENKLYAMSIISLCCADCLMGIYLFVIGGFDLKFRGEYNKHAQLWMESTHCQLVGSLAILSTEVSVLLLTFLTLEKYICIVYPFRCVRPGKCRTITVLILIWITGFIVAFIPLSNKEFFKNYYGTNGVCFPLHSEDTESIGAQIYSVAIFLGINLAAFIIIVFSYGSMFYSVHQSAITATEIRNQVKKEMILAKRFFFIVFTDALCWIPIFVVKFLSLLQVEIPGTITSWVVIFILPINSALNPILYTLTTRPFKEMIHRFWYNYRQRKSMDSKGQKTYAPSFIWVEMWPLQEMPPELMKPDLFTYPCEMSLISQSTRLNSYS

T2: mouse RXFP1 (mouse, UniProt Q6R6I7 1-758)
T2 sequence (looked up): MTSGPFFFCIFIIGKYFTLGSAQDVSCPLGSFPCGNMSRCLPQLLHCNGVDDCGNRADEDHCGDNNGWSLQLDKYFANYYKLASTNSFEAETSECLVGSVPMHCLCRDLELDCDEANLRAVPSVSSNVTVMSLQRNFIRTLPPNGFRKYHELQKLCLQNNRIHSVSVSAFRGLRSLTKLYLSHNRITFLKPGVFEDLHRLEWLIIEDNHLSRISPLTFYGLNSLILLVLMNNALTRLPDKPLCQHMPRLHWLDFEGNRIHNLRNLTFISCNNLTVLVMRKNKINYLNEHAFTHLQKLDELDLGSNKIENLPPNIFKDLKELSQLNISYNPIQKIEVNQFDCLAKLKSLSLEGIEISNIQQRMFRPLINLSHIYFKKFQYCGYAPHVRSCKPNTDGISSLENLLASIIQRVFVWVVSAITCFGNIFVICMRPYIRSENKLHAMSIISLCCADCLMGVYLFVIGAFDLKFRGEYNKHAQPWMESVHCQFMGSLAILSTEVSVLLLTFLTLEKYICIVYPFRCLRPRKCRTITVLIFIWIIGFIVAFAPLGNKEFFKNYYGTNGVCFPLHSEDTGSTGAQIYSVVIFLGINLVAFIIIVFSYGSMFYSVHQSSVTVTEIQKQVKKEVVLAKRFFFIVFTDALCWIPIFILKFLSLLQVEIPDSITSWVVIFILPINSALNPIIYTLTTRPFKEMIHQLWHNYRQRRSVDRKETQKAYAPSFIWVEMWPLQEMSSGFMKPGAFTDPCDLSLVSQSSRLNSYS

B1: RELAX0054 (Fc fusion)
chain 1: DKTHTCPPCPAPEFEGGPSVFLFPPKPKDTLMISRTPEVTCVVVDVSHEDPEVKFNWYVDGVEVHNAKTKPREEQYNSTYRVVSVLTVLHQDWLNGKEYKCKVSNKALPASIEKTISKAKGQPREPQVCTLPPSREEMTKNQVSLSCAVKGFYPSDIAVEWESNGQPENNYKTTPPVLDSDGSFFLVSKLTVDKSRWQQGNVFSCSVMHEALHNHYTQKSLSLSPGAAPAPAPAPAPAPAGSQLYSALANKCCHVGCTKRSLARFC
chain 2: DKTHTCPPCPAPEFEGGPSVFLFPPKPKDTLMISRTPEVTCVVVDVSHEDPEVKFNWYVDGVEVHNAKTKPREEQYNSTYRVVSVLTVLHQDWLNGKEYKCKVSNKALPASIEKTISKAKGQPREPQVYTLPPCREEMTKNQVSLWCLVKGFYPSDIAVEWESNGQPENNYKTTPPVLDSDGSFFLYSKLTVDKSRWQQGNVFSCSVMHEALHNHYTQKSLSLSPGAAPAPAPAPAPAPAGSSWMEEVIKLCGRELVRAQIAICGMSTWS
B2: RELAX0056 (Fc fusion)
chain 1: DKTHTCPPCPAPEFEGGPSVFLFPPKPKDTLMISRTPEVTCVVVDVSHEDPEVKFNWYVDGVEVHNAKTKPREEQYNSTYRVVSVLTVLHQDWLNGKEYKCKVSNKALPASIEKTISKAKGQPREPQVYTLPPCREEMTKNQVSLWCLVKGFYPSDIAVEWESNGQPENNYKTTPPVLDSDGSFFLYSKLTVDKSRWQQGNVFSCSVMHEALHNHYTQKSLSLSPGAPAPAPAPAPAPAPAPAPAGSQLYSALANKCCHVGCTKRSLARFC
chain 2: DKTHTCPPCPAPEFEGGPSVFLFPPKPKDTLMISRTPEVTCVVVDVSHEDPEVKFNWYVDGVEVHNAKTKPREEQYNSTYRVVSVLTVLHQDWLNGKEYKCKVSNKALPASIEKTISKAKGQPREPQVCTLPPSREEMTKNQVSLSCAVKGFYPSDIAVEWESNGQPENNYKTTPPVLDSDGSFFLVSKLTVDKSRWQQGNVFSCSVMHEALHNHYTQKSLSLSPGAPAPAPAPAPAPAPAPAPAGSSWMEEVIKLCGRELVRAQIAICGMSTWS
B3: RELAX0084 (Fc fusion)
chain 1: B2 chain 1
chain 2: DKTHTCPPCPAPEFEGGPSVFLFPPKPKDTLMISRTPEVTCVVVDVSHEDPEVKFNWYVDGVEVHNAKTKPREEQYNSTYRVVSVLTVLHQDWLNGKEYKCKVSNKALPASIEKTISKAKGQPREPQVCTLPPSREEMTKNQVSLSCAVKGFYPSDIAVEWESNGQPENNYKTTPPVLDSDGSFFLVSKLTVDKSRWQQGNVFSCSVMHEALHNHYTQKSLSLSPGGGGGSGGGGSGGGGSGGGGGSSWMEEVIKLCGRELVRAQIAICGMSTWS
B4: RELAX0081 (Fc fusion)
chain 1: DKTHTCPPCPAPEFEGGPSVFLFPPKPKDTLMISRTPEVTCVVVDVSHEDPEVKFNWYVDGVEVHNAKTKPREEQYNSTYRVVSVLTVLHQDWLNGKEYKCKVSNKALPASIEKTISKAKGQPREPQVYTLPPCREEMTKNQVSLWCLVKGFYPSDIAVEWESNGQPENNYKTTPPVLDSDGSFFLYSKLTVDKSRWQQGNVFSCSVMHEALHNHYTQKSLSLSPGGGGGSGGGGSGGGGGSQLYSALANKCCHVGCTKRSLARFC
chain 2: DKTHTCPPCPAPEFEGGPSVFLFPPKPKDTLMISRTPEVTCVVVDVSHEDPEVKFNWYVDGVEVHNAKTKPREEQYNSTYRVVSVLTVLHQDWLNGKEYKCKVSNKALPASIEKTISKAKGQPREPQVCTLPPSREEMTKNQVSLSCAVKGFYPSDIAVEWESNGQPENNYKTTPPVLDSDGSFFLVSKLTVDKSRWQQGNVFSCSVMHEALHNHYTQKSLSLSPGGGGGSGGGGSGGGGGSSWMEEVIKLCGRELVRAQIAICGMSTWS
B5: RELAX0109 (Fc fusion)
chain 1: B4 chain 1
chain 2: B1 chain 2
B6: RELAX0082 (Fc fusion)
chain 1: DKTHTCPPCPAPEFEGGPSVFLFPPKPKDTLMISRTPEVTCVVVDVSHEDPEVKFNWYVDGVEVHNAKTKPREEQYNSTYRVVSVLTVLHQDWLNGKEYKCKVSNKALPASIEKTISKAKGQPREPQVYTLPPCREEMTKNQVSLWCLVKGFYPSDIAVEWESNGQPENNYKTTPPVLDSDGSFFLYSKLTVDKSRWQQGNVFSCSVMHEALHNHYTQKSLSLSPGGGGGSGGGGGSQLYSALANKCCHVGCTKRSLARFC
chain 2: DKTHTCPPCPAPEFEGGPSVFLFPPKPKDTLMISRTPEVTCVVVDVSHEDPEVKFNWYVDGVEVHNAKTKPREEQYNSTYRVVSVLTVLHQDWLNGKEYKCKVSNKALPASIEKTISKAKGQPREPQVCTLPPSREEMTKNQVSLSCAVKGFYPSDIAVEWESNGQPENNYKTTPPVLDSDGSFFLVSKLTVDKSRWQQGNVFSCSVMHEALHNHYTQKSLSLSPGGGGGSGGGGGSSWMEEVIKLCGRELVRAQIAICGMSTWS
B7: RELAX0055 (Fc fusion)
chain 1: B6 chain 1 with G227A, G228P, G229A, G230P, S231A, G232P, G233A, G234P, G235A
chain 2: B6 chain 2 with G227A, G228P, G229A, G230P, S231A, G232P, G233A, G234P, G235A
B8: RELAX0083 (Fc fusion)
chain 1: DKTHTCPPCPAPEFEGGPSVFLFPPKPKDTLMISRTPEVTCVVVDVSHEDPEVKFNWYVDGVEVHNAKTKPREEQYNSTYRVVSVLTVLHQDWLNGKEYKCKVSNKALPASIEKTISKAKGQPREPQVYTLPPCREEMTKNQVSLWCLVKGFYPSDIAVEWESNGQPENNYKTTPPVLDSDGSFFLYSKLTVDKSRWQQGNVFSCSVMHEALHNHYTQKSLSLSPGGGGGGSQLYSALANKCCHVGCTKRSLARFC
chain 2: DKTHTCPPCPAPEFEGGPSVFLFPPKPKDTLMISRTPEVTCVVVDVSHEDPEVKFNWYVDGVEVHNAKTKPREEQYNSTYRVVSVLTVLHQDWLNGKEYKCKVSNKALPASIEKTISKAKGQPREPQVCTLPPSREEMTKNQVSLSCAVKGFYPSDIAVEWESNGQPENNYKTTPPVLDSDGSFFLVSKLTVDKSRWQQGNVFSCSVMHEALHNHYTQKSLSLSPGGGGGGSSWMEEVIKLCGRELVRAQIAICGMSTWS

Each binder was assayed against T1, human RXFP1 (assay: cell-based or functional assay).

Point of comparison: B3, “EC50 hRXFP1 (M), cAMP HTRF assay” value 5.34e-11 M. Against it:
- B1 — 1.8-fold lower, 2.89e-11 M
- B2 — within 1.5-fold, 3.87e-11 M
- B4 — within 1.5-fold, 4.51e-11 M
- B5 — 32-fold higher, 1.72e-09 M
- B6 — within 1.5-fold, 5.68e-11 M
- B7 — 2.8-fold lower, 1.88e-11 M
- B8 — 1.9-fold lower, 2.81e-11 M

The binders below were run against human RXFP2 (human, UniProt Q8WXD0 1-754) (assay: cell-based or functional assay).
Sequence of human RXFP2 (Q8WXD0 whole entry): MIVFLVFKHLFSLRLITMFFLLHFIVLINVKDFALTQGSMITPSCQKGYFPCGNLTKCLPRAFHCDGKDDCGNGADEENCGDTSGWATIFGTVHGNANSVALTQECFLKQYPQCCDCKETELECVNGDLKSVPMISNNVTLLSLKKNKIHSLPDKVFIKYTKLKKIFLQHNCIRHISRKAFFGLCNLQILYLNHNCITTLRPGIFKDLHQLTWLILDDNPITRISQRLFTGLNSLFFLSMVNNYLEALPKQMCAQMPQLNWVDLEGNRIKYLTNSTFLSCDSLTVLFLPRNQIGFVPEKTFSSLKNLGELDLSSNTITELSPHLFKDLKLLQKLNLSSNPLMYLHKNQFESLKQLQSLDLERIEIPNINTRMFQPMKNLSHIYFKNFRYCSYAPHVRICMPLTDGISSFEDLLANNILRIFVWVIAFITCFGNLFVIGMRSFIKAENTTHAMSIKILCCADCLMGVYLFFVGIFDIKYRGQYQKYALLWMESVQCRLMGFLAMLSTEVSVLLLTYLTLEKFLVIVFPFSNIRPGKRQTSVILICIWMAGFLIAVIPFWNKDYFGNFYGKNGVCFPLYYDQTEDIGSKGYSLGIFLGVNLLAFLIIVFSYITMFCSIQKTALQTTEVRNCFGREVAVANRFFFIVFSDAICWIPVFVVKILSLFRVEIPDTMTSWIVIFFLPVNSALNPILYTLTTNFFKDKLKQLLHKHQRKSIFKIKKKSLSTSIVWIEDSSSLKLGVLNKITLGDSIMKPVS

Point of comparison: B1, “EC50 hRXFP2 (M), cAMP HTRF assay” value 1.53e-08 M. Against it:
- B2 — 4.2-fold higher, 6.48e-08 M
- B3 — within 1.5-fold, 1.2e-08 M
- B4 — 3.2-fold higher, 4.92e-08 M
- B6 — 2.5-fold higher, 3.81e-08 M
- B7 — 2.2-fold higher, 3.39e-08 M
- B8 — 1.6-fold higher, 2.42e-08 M

The binders below were run against T2, mouse RXFP1 (assay: cell-based or functional assay).

Point of comparison: B3, “EC50 mRXFP1 (M), cAMP HTRF assay” value 3.48e-11 M. Against it:
- B1 — 2.2-fold lower, 1.59e-11 M
- B2 — within 1.5-fold, 3.27e-11 M
- B4 — within 1.5-fold, 4.73e-11 M
- B5 — 24-fold higher, 8.22e-10 M
- B6 — within 1.5-fold, 4.9e-11 M
- B7 — 2.3-fold lower, 1.51e-11 M
- B8 — 2.6-fold lower, 1.34e-11 M
